Patent CN116574187A (ZHEJIANG SHIMAI PHARMACEUTICAL CO LTD, dated 2023)

Legend:
[1] = target: 细胞表面表达的GUCY2C (HT55, SW948, LS174T-GUCY2C, HT1080-GUCY2C细胞) (human, UniProt P25092 24-1073); test: cell-based or functional assay
人GUCY2C蛋白(His标签) [2] = target: T1, 人GUCY2C蛋白(His标签) (human, UniProt P25092 24-430); test: ELISA, coated human GUCY2C protein, anti-Fc HRP detection
T1 construct: Bought from ACRO; also called 重组人GUCY2C; human GUCY2C protein (His tag); not shown: His tag

[3] = target: CD3 on TCR/CD3效应细胞 (Jurkat-NFAT-CD3) (human); test: cell-based or functional assay
人CD3蛋白 = target: T2, 人CD3蛋白 (human); test: ELISA, coated human CD3 protein
T2 construct: Bought from ACRO; also called 重组人CD3; human CD3 protein (Fc标签)

人GUCY2C蛋白(His标签) [4] = target: T1, 人GUCY2C蛋白(His标签); test: ELISA, coated human GUCY2C protein

Sequence of CD3 on TCR/CD3效应细胞 (Jurkat-NFAT-CD3) (human) (chain, as listed by the source): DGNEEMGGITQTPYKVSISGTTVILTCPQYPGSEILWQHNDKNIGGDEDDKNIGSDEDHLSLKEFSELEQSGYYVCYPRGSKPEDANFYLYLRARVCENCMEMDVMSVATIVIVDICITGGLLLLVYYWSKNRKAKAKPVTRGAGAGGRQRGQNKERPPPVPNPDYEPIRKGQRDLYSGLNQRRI
Sequence of 细胞表面表达的GUCY2C (HT55, SW948, LS174T-GUCY2C, HT1080-GUCY2C细胞) (P25092 24-1073): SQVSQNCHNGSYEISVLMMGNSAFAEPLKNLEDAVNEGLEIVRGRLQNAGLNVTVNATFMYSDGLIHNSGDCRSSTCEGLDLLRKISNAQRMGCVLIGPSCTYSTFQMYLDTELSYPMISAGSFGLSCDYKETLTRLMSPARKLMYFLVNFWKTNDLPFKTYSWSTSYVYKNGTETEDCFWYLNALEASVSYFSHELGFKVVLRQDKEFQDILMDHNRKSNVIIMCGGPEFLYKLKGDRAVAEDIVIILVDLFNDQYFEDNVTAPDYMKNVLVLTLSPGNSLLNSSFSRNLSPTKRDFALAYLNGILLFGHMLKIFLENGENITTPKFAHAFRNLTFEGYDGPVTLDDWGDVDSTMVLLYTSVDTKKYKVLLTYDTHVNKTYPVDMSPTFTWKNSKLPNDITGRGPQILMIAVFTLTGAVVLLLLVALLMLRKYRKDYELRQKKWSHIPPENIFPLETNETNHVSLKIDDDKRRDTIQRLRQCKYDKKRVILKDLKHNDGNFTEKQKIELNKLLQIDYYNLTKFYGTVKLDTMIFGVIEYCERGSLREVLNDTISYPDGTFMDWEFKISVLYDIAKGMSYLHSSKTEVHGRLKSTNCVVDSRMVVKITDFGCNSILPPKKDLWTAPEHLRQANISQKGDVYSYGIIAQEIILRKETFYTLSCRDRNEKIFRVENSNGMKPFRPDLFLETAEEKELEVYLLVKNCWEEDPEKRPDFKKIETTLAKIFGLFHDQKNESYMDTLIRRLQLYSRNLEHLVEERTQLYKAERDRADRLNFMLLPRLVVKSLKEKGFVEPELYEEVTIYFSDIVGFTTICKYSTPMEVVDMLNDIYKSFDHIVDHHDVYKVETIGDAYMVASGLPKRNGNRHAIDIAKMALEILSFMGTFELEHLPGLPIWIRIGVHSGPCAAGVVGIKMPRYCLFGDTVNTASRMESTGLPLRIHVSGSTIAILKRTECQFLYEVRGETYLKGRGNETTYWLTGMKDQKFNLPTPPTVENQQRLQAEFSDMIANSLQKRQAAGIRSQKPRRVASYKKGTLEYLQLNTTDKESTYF
T1 sequence (P25092 24-430 limits assumed): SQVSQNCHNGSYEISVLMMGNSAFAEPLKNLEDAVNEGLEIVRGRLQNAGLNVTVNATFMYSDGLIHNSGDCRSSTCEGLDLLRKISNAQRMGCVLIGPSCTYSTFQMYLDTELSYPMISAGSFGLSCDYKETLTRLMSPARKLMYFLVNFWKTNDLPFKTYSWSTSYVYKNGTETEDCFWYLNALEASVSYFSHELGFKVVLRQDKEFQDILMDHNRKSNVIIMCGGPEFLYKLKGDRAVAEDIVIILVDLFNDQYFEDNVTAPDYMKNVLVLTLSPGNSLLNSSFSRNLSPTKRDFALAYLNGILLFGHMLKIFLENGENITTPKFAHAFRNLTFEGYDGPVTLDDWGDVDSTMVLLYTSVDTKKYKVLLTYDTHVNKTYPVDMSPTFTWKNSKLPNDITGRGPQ
T2 sequence (P07766 23-126): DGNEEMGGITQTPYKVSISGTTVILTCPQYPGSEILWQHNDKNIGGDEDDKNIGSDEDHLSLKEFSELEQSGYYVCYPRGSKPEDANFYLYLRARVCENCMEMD

B1: GCC-56C9M mAb (antibody, human IgG1, kappa)
heavy: not shown
light: QIVLTQSPAIMSVSPGEKVTITCSASSSVSYIHWFQQRPGTSPKLWIYSTSNLASGVPARFSGSGSGTSYSLTISRMEAEDAATYYCQQRSSYPLTFGTGTKLELKRTVAAPSVFIFPPSDEQLKSGTASVVCLLNNFYPREAKVQWKVDNALQSGNSQESVTEQDSKDSTYSLSSTLTLSKADYEKHKVYACEVTHQGLSSPVTKSFNRGEC
notes: Chimeric full IgG1: Fab of mouse clone 56C9 fused to human IgG1 Fc; expressed in CHO-S cells; also called 抗GUCY2C mAb; 抗GUCY2C单克隆抗体
ADCC reporter: activation of Jurkat-CD16a cells in the presence of HT1080-GUCY2C cells (luciferase), EC50 [1]: ~0.0247 µg/mL | EC50 (人GUCY2C蛋白(His标签) [2]): 0.193 µg/mL

B2: GCC-56C9H4-M6MV1-1 (bispecific antibody, human IgG1, kappa)
light: EVQLVESGGGLVKPGGSLRLSCAASGFTFSSYAMTWVRQTPEKRLEWVATMSSGGGYTYYLDSVKGRFTISRDNAKNTLYLQMSSLRADDTAVYYCARHNYGYNYAMDYWGQGTLVTVSSGGGGSGGGGSGGGGSEIVLTQSPAIQSVSPGEKVTITCSASSSVSYIHWYQQRPGKAPKLLIYSTSNLASGVPARFSGSGSGTDFSLTISRLQAEDAATYYCQQRSSYPLTFGQGTKLEIKGSGGGGSGGGGSEIVVTQSPATLSVSPGERATLSCRSSTGAVTTSNYANWVQQKPGQAPRGLIGGANKRAPGVPARFSGSLSGDEATLTISSLQSEDFAVYYCALWYSNLWVFGQGTKLEIKRTVAAPSVFIFPPSDEQLKSGTASVVCLLNNFYPREAKVQWKVDNALQSGNSQESVTEQDSKDSTYSLSSTLTLSKADYEKHKVYACEVTHQGLSSPVTKSFNRGECGGSGSCPPCPAPEAAGAPSVFLFPPKPKDTLMISRTPEVTCVVVDVSHEDPEVKFNWYVDGVEVHNAKTKPREEQYNSTYRVVSVLTVLHQDWLNGKEYKCKVSNKALGAPIEKTISKAKGQPREPQVYTLPPSRDELTKNQVSLLCLVKGFYPSDIAVEWESNGQPENNYKTTPPVLDSDGSFFLHSKLTVDKSRWQQGNVFSCSVMHEALHNHYTQKSLSLSPG
heavy: EVQLVESGGGLVQPGGSLRLSCAASGFTFNTYAMNWVRQAPGKGLEWVARIRSKYNNYATYYADSVKGRFTISRDDSKNTLYLQMNSLRAEDTAVYYCARHGNFGSSYVSYFAYWGQGTTVTVSSASTKGPSVFPLAPSSKSTSGGTAALGCLVKDYFPEPVTVSWNSGALTSGVHTFPAVLQSSGLYSLSSVVTVPSSSLGTQTYICNVNHKPSNTKVDKKVEPKSCDKTHTCPPCPAPEAAGAPSVFLFPPKPKDTLMISRTPEVTCVVVDVSHEDPEVKFNWYVDGVEVHNAKTKPREEQYNSTYRVVSVLTVLHQDWLNGKEYKCKVSNKALGAPIEKTISKAKGQPREPQVYTLPPSRDELTKNQVSLLCLVKGFYPSDIAVEWESNGQPENNYKTTPPVLDSDGSFFLHSKLTVDKSRWQQGNVFSCSVMHEALHNHYTQKSLSLSPG
notes: Heterodimer of a 'light chain' (humanised anti-GUCY2C scFv - linker - anti-CD3 hSP34 VL-CL - mFc7.2) and a 'heavy chain' (anti-CD3 VH-CH1 - mFc7.2); expressed in 293FS or CHO-S cells; also called GUCY2C×CD3 IBiTE
T cell activation: Jurkat-NFAT-CD3 luciferase reporter with HT55 target cells, EC50 [3]: ~0.374 µg/mL | T cell activation: Jurkat-NFAT-CD3 luciferase reporter with LS174T-GUCY2C target cells, EC50 [3]: ~0.335 µg/mL | T cell activation: Jurkat-NFAT-CD3 luciferase reporter with SW948 target cells, EC50 [3]: ~0.519 µg/mL | T cell activation: Jurkat-NFAT-CD3 luciferase reporter with HT55 target cells, EC50 [1]: ~0.374 µg/mL | T cell activation: Jurkat-NFAT-CD3 luciferase reporter with LS174T-GUCY2C target cells, EC50 [1]: ~0.335 µg/mL | T cell activation: Jurkat-NFAT-CD3 luciferase reporter with SW948 target cells, EC50 [1]: ~0.519 µg/mL | killing of HT55 cells with human PBMC (CCK8), EC50 [1]: 0.0152 µg/mL | killing of LS174T-GUCY2C cells with human PBMC (CCK8), EC50 [1]: 0.00274 µg/mL | killing of SW948 cells with human PBMC (CCK8), EC50 [1]: 0.012 µg/mL | EC50 (人CD3蛋白): 0.116 µg/mL | EC50 (人GUCY2C蛋白(His标签) [4]): 0.14 µg/mL
